Test results: publication PMC3234718
One block for each molecule: values may come before it.

What was measured:
Assay in all cases: SPR
[1] = target: C-propeptide trimer of human procollagen III (CPIII) (human) (UniProt P02461)
CPIII-His (human) = CPIII-His (human) (UniProt P02461)
[2] = target: mini-procollagen III N306Q (human)

- KD(1) (heterogeneous ligand model, site 1) [1]: 0.0046 µM
- KD(2) (heterogeneous ligand model, site 2) [1]: 0.028 µM
- KD(1) (heterogeneous ligand model, site 1) (CPIII-His (human)): 0.0128 µM
- KD(2) (heterogeneous ligand model, site 2) (CPIII-His (human)): 0.027 µM
- KD(1) (heterogeneous ligand model, site 1) [2]: 0.00074 µM
- KD(2) (heterogeneous ligand model, site 2) [2]: 0.0126 µM
Molecule: CUB1-CUB2 (minimal active fragment of PCPE-1) (domain or fragment)

- KD(1) (heterogeneous ligand model, site 1) [1]: 0.0047 µM
- KD(2) (heterogeneous ligand model, site 2) [1]: 0.017 µM
- KD(1) (heterogeneous ligand model, site 1) (CPIII-His (human)): 0.0059 µM
- KD(2) (heterogeneous ligand model, site 2) (CPIII-His (human)): 0.015 µM
- KD(1) (heterogeneous ligand model, site 1) [2]: 0.00066 µM
- KD(2) (heterogeneous ligand model, site 2) [2]: 0.01 µM
B1: procollagen C-proteinase enhancer-1 (PCPE-1) (natural protein)
chain: QTPNYTRPVFLCGGDVKGESGYVASEGFPNLYPPNKECIWTITVPEGQTVSLSFRVFDLELHPACRYDALEVFAGSGTSGQRLGRFCGTFRPAPLVAPGNQVTLRMTTDEGTGGRGFLLWYSGRATSGTEHQFCGGRLEKAQGTLTTPNWPESDYPPGISCSWHIIAPPDQVIALTFEKFDLEPDTYCRYDSVSVFNGAVSDDSRRLGKFCGDAVPGSISSEGNELLVQFVSDLSVTADGFSASYKTLPRGTAKEGQGPGPKRGTEPKVKLPPKSQPPEKTEESPSAPDAPTCPKQCRRTGTLQSNFCASSLVVTATVKSMVREPGEGLAVTVSLIGAYKTGGLDLPSPPTGASLKFYVPCKQCPPMKKGVSYLLMGQVEENRGPVLPPESFVVLHRPNQDQILTNLSKRKCPSQPVRAAASQD
